The source of these data is doi:10.1101/2023.10.19.563136.

The target of assay [1] is phosphorylated HemRFL (full-length HemR) (Leptospira biflexa). Briefly: SEC.
The target in assay [2] is phosphorylated HemRREC (phospho-receiver domain of HemR) (Leptospira biflexa). Nature of the assay: SEC.

In turn, “phosphorylated HemRFL (full-length HemR) (natural protein)” came in with a stoichiometry N in assay [1] of 2.

On to “phosphorylated HemRREC (phospho-receiver domain of HemR) (domain or fragment)”, for which, in assay [2], the stoichiometry N is 2.
